Experimental data taken from patent US20070248617A1 (published 2007).

Biological target: T1, recombinant human RANK-hFc fusion protein (human, UniProt Q9Y6Q6 30-212, limits assumed)
T1 construct: also called hRANK; not shown: human Fc (hFc)
T1 sequence (looked up): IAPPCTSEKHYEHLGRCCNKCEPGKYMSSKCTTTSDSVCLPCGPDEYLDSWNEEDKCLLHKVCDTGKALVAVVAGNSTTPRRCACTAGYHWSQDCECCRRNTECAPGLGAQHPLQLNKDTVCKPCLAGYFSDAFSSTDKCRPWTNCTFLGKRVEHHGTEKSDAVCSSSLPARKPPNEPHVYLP
Test: ELISA, human RANKL coated at 10 µg/ml, serial dilutions of human RANK-hFc, anti-hFc-HRP detection
Procedure: To test whether the antibodies generated in mice have neutralizing activity, in vitro binding assays for both mouse and human RANKL and their cognate receptors mouse RANK and human RANK were established. ELISA plates were therefore coated with 10 μg/ml of either mouse or human RANKL protein and incubated with serial dilutions of a recombinant mouse RANK-hFc fusion protein or a recombinant human RANK-hFc fusion protein, respectively. Bound protein was detected with a horse raddish peroxidase conjugated anti-hFc antibody. […] Sera of mice immunized with mRANKL(155-174) coupled to Qβcapsid were then tested for their ability to inhibit the binding of mouse and human RANKL protein to their respective receptors. ELISA plates were therefore coated with either mouse or human RANKL protein at a concentration of 10 μg/ml, and co-incubated with serial dilutions of a pool of mouse sera from day 35 and 0.35 nM mouse or human RANK-hFc fusion protein, respectively. Binding of receptor to immobilized RANKL protein was detected with horse raddish peroxidase conjugated anti-hFc antibody.

B1: human RANKL protein (ligand, UniProt O14788 140-317, looked up)
chain: IRAEKAMVDGSWLDLAKRSKLEAQPFAHLTINATDIPSGSHKVSLSSWYHDRGWAKISNMTFSNGKLIVNQDGFYYLYANICFRHHETSGDLATEYLQLMVYVTKTSIKIPSSHTLMKGGSTKYWSGNSEFHFYSINVGGFFKLRSGEEISIEVSNPSLLDPDQDATYFGAFKVRDID
notes: also called hRANKL
binding result: binds
